Substitutions are numbered along the chain they refer to.
T1: human LAG-3 on cells (HEK293-hLAG-3 stable cell line) (human, UniProt P18627 23-525)
T1 sequence: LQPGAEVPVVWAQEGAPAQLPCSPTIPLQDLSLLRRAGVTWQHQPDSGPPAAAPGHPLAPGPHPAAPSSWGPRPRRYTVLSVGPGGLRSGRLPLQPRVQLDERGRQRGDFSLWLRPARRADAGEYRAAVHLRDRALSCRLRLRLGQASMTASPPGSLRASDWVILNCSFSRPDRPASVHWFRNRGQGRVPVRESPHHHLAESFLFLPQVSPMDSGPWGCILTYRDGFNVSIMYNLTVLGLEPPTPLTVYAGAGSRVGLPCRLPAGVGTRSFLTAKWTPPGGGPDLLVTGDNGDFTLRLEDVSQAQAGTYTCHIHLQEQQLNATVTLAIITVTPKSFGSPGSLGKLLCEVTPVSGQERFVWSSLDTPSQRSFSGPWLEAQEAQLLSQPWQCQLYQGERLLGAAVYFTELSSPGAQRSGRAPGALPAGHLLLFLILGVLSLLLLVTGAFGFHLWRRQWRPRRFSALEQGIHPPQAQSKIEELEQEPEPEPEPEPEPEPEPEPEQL

T2: human LAG-3 ECD (antigen protein of the affinity test) (human, UniProt P18627 23-450)
T2 sequence: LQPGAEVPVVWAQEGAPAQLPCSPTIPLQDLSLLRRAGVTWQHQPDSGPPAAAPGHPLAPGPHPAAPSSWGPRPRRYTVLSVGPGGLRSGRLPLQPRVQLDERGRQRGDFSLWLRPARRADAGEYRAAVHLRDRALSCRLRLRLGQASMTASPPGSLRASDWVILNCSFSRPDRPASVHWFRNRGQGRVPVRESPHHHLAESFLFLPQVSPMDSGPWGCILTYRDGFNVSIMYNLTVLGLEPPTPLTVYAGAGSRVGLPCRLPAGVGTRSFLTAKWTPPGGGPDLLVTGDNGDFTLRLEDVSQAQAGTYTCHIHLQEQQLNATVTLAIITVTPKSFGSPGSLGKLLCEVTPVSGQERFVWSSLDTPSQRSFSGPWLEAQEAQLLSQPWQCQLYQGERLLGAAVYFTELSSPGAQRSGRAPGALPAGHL

B1: 405B8H3-2 humanized antibody (antibody, V domains shown)
VH: QVQLVQSGAEVKKPGASVKVSCKASGYTFTDYEMHWVRQAPGQGLEWMGATDPETGNSAYNQKFKGRVTMTADKSTSTVYMELSSLRSEDTAVYYCISTGWNDWGQGTTVTVSS
VL: DIQMTQSPSSLSASVGDRVTITCKASQDINSYLSWFQQKPGKAPKSLIYRADRLLDGVPSRFSGSGSGTDFTLTISSLQPEDFATYYCLQYDEFPYTFGQGTKLEIK
B2: 405B8H3-6 humanized antibody (antibody, V domains shown)
VH: B1 VH
VL: B1 VL with T69Q, F71Y
B3: 405B8H3-12 humanized antibody (antibody, V domains shown)
VH: B1 VH with R38K, M48I, R67K, V68A, V79A
VL: B1 VL with Q3K, A43S, T69Q, F71Y
B4: 405B8H3-10 humanized antibody (antibody, V domains shown)
VH: B1 VH
VL: B1 VL with Q3K, A43S, T69Q, F71Y
B5: 405B8H3-8 humanized antibody (antibody, V domains shown)
VH: B1 VH with R38K, M48I, R67K, V68A, V79A
VL: B1 VL with T69Q, F71Y
B6: 405B8H3-3 humanized antibody (antibody, V domains shown)
VH: B1 VH with M48I, V68A, V79A
VL: B1 VL
B7: 405B8H3-7 humanized antibody (antibody, V domains shown)
VH: B1 VH with M48I, V68A, V79A
VL: B1 VL with T69Q, F71Y
B8: 405B8H3-11 humanized antibody (antibody, V domains shown)
VH: B1 VH with M48I, V68A, V79A
VL: B1 VL with Q3K, A43S, T69Q, F71Y
B9: 405B8H3-9 humanized antibody (antibody, V domains shown)
VH: B1 VH with A72R, K74T
VL: B1 VL with Q3K, A43S, T69Q, F71Y
B10: 405B8H3-5 humanized antibody (antibody, V domains shown)
VH: B1 VH with A72R, K74T
VL: B1 VL with T69Q, F71Y
B11: 405B8H3-1 humanized antibody (antibody, V domains shown)
VH: B1 VH with A72R, K74T
VL: B1 VL
B12: 405B8H3-4 humanized antibody (antibody, V domains shown)
VH: B1 VH with R38K, M48I, R67K, V68A, V79A
VL: B1 VL

biological target: T1, human LAG-3 on cells (HEK293-hLAG-3 …); experiment: FACS, HEK293-hLAG-3, antibody 0 nM

Binder | Mean fluorescence intensity
B1 | 4
B2 | 4
B3 | 4
B4 | 4
B5 | 4
B6 | 4
B7 | 4
B8 | 4
B9 | 4
B10 | 4
B11 | 4
B12 | 4

biological target: T1, human LAG-3 on cells (HEK293-hLAG-3 …); experiment: FACS, HEK293-hLAG-3, antibody 8 nM
Source text: (§1) A. The binding of antibodies to LAG-3 expressing cells was detected by Flow cytometry (FACS), wherein the method was according to that of Example 5.

Binder | Mean fluorescence intensity
B1 | 245
B2 | 242
B3 | 207
B4 | 229
B5 | 213
B6 | 230
B7 | 230
B8 | 220
B9 | 246
B10 | 243
B11 | 244
B12 | 217

biological target: T2, human LAG-3 ECD (antigen protein of the …); experiment: SPR, CM5 chip, antibody captured by anti-human Fc IgG, antigen in flow, 1:1 fit
Procedure: First, anti-human Fc IgG was immobilized on the surface of the CM5 chip to 6000-10000 RU by amino coupling method, with FC1 as the reference channel. The coupling process was as follows: a freshly prepared 1:1 mixture of 50 mM NHS and 200 mM EDC was activated for 7 minutes, then injected with 10-50 ug/ml anti-human Fc IgG diluted in 10 mM sodium acetate ph5.0 buffer. The remaining activated sites were blocked with 1M ethanolamine. Then, HBS-EP+ buffer was used to dilute the antibody to be tested to 5 ug/ml (adjustable according to the capture level) and the antibodies were captured on the chip at a flow rate of 10 ul/min to obtain a response value of about 100˜300 RU. Then the antigen protein was diluted to 100 nM (the highest concentration was tentatively 100 nM), and flew through the chip surface at a flow rate of 30 ul/min. If enough signal value was obtained, the antigen-protein was diluted by several concentration gradients, and flew through the chip surface respectively. At the end of each cycle, the chip surface was regenerated with 10 mM Glycine at pH 1.5. The kinetic rate constant needed to be subtracted from the blank control, and the data was fitted with the global fit analysis method 1:1 combination model. The dissociation equilibrium rate constant (KD) was calculated according to the following formula: KD=kd/ka.

Binder | Kd [nM] | koff [s⁻¹] | kon [M⁻¹ s⁻¹]
B1 | 1.68 | 0.000184 | 110000
B2 | 2.04 | 0.000193 | 94900
B7 | 3.28 | 0.000316 | 96400
B11 | 2.54 | 0.000254 | 100000

biological target: T1, human LAG-3 on cells (HEK293-hLAG-3 …); experiment: FACS, HEK293-hLAG-3, antibody 1.6 nM

Binder | Mean fluorescence intensity
B1 | 188
B2 | 179
B3 | 142
B4 | 184
B5 | 134
B6 | 173
B7 | 163
B8 | 164
B9 | 218
B10 | 174
B11 | 178
B12 | 151

biological target: T1, human LAG-3 on cells (HEK293-hLAG-3 …); experiment: FACS, HEK293-hLAG-3, antibody 0.013 nM
Source text: as §1

Binder | Mean fluorescence intensity
B1 | 11
B2 | 9
B3 | 11
B4 | 11
B5 | 8
B6 | 11
B7 | 9
B8 | 11
B9 | 14
B10 | 9
B11 | 11
B12 | 10

biological target: T1, human LAG-3 on cells (HEK293-hLAG-3 …); experiment: FACS, HEK293-hLAG-3, antibody 40 nM
Source text: as §1

Binder | Mean fluorescence intensity
B1 | 272
B2 | 254
B3 | 229
B4 | 238
B5 | 242
B6 | 253
B7 | 252
B8 | 230
B9 | 249
B10 | 257
B11 | 257
B12 | 251

biological target: T1, human LAG-3 on cells (HEK293-hLAG-3 …); experiment: FACS, HEK293-hLAG-3, antibody 0.32 nM
Source text: as §1

Binder | Mean fluorescence intensity
B1 | 82
B2 | 66
B3 | 61
B4 | 82
B5 | 52
B6 | 74
B7 | 62
B8 | 71
B9 | 132
B10 | 62
B11 | 73
B12 | 63

biological target: T1, human LAG-3 on cells (HEK293-hLAG-3 …); experiment: FACS, HEK293-hLAG-3, antibody 0.064 nM
Source text: as §1

Binder | Mean fluorescence intensity
B1 | 27
B2 | 21
B3 | 23
B4 | 25
B5 | 19
B6 | 26
B7 | 21
B8 | 25
B9 | 43
B10 | 21
B11 | 26
B12 | 23
